The chains are these.
B2: UPF2 MIF4G-3 domain (residues 761–1054) (domain or fragment, human, UniProt Q9HAU5 761-1054, looked up)
chain: EKTVKKKRPPLQEYVRKLLYKDLSKVTTEKVLRQMRKLPWQDQEVKDYVICCMINIWNVKYNSIHCVANLLAGLVLYQEDVGIHVVDGVLEDIRLGMEVNQPKFNQRRISSAKFLGELYNYRMVESAVIFRTLYSFTSFGVNPDGSPSSLDPPEHLFRIRLVCTILDTCGQYFDRGSSKRKLDCFLVYFQRYVWWKKSLEVWTKDHPFPIDIDYMISDTLELLRPKIKLCNSLEESIRQVQDLEREFLIKLGLVNDKDSKDSMTEGENLEEDEEEEEGGAETEEQSGNESEVNE
notes: UPF2, human, Q9HAU5, MIF4G-3 construct, residues 761-1054; Limits are printed for the construct 'which we used as substrate in our assays'; also called MIF4G domain 3

In assay [1] the target is B2. Put plainly: SPR; competition: SMG1 immobilised; MIF4G-3 at constant 50 nM injected with 0, 50, 250, 500 nM UPF3b RRM domain. The settings on record: both partners purified.
Assay [2] concerns the target T1, SMG1 (full-length recombinant, wild-type, N-terminal SBP-tag) (UniProt Q96Q15 1-3661).
T1 construct: SMG1, serine/threonine-protein kinase of the PIKK family, about 415 kDa, full-length, wild type; also called SMG1 kinase; wild-type SMG1; source: recombinant, purified; not shown: SBP, N-terminal, kept
Put plainly: SPR; SMG1 immobilised via its N-terminal SBP-tag on a streptavidin (SA) chip, ~2000 RU, BIAcore 3000; analyte titrated at 25 µl/min; apparent KD from RUmax against concentration, one binding site model. The settings on record: both partners purified. Background: SPR reads the build-up and loss of mass on a sensor chip optically.

T1 sequence (Q96Q15 whole entry): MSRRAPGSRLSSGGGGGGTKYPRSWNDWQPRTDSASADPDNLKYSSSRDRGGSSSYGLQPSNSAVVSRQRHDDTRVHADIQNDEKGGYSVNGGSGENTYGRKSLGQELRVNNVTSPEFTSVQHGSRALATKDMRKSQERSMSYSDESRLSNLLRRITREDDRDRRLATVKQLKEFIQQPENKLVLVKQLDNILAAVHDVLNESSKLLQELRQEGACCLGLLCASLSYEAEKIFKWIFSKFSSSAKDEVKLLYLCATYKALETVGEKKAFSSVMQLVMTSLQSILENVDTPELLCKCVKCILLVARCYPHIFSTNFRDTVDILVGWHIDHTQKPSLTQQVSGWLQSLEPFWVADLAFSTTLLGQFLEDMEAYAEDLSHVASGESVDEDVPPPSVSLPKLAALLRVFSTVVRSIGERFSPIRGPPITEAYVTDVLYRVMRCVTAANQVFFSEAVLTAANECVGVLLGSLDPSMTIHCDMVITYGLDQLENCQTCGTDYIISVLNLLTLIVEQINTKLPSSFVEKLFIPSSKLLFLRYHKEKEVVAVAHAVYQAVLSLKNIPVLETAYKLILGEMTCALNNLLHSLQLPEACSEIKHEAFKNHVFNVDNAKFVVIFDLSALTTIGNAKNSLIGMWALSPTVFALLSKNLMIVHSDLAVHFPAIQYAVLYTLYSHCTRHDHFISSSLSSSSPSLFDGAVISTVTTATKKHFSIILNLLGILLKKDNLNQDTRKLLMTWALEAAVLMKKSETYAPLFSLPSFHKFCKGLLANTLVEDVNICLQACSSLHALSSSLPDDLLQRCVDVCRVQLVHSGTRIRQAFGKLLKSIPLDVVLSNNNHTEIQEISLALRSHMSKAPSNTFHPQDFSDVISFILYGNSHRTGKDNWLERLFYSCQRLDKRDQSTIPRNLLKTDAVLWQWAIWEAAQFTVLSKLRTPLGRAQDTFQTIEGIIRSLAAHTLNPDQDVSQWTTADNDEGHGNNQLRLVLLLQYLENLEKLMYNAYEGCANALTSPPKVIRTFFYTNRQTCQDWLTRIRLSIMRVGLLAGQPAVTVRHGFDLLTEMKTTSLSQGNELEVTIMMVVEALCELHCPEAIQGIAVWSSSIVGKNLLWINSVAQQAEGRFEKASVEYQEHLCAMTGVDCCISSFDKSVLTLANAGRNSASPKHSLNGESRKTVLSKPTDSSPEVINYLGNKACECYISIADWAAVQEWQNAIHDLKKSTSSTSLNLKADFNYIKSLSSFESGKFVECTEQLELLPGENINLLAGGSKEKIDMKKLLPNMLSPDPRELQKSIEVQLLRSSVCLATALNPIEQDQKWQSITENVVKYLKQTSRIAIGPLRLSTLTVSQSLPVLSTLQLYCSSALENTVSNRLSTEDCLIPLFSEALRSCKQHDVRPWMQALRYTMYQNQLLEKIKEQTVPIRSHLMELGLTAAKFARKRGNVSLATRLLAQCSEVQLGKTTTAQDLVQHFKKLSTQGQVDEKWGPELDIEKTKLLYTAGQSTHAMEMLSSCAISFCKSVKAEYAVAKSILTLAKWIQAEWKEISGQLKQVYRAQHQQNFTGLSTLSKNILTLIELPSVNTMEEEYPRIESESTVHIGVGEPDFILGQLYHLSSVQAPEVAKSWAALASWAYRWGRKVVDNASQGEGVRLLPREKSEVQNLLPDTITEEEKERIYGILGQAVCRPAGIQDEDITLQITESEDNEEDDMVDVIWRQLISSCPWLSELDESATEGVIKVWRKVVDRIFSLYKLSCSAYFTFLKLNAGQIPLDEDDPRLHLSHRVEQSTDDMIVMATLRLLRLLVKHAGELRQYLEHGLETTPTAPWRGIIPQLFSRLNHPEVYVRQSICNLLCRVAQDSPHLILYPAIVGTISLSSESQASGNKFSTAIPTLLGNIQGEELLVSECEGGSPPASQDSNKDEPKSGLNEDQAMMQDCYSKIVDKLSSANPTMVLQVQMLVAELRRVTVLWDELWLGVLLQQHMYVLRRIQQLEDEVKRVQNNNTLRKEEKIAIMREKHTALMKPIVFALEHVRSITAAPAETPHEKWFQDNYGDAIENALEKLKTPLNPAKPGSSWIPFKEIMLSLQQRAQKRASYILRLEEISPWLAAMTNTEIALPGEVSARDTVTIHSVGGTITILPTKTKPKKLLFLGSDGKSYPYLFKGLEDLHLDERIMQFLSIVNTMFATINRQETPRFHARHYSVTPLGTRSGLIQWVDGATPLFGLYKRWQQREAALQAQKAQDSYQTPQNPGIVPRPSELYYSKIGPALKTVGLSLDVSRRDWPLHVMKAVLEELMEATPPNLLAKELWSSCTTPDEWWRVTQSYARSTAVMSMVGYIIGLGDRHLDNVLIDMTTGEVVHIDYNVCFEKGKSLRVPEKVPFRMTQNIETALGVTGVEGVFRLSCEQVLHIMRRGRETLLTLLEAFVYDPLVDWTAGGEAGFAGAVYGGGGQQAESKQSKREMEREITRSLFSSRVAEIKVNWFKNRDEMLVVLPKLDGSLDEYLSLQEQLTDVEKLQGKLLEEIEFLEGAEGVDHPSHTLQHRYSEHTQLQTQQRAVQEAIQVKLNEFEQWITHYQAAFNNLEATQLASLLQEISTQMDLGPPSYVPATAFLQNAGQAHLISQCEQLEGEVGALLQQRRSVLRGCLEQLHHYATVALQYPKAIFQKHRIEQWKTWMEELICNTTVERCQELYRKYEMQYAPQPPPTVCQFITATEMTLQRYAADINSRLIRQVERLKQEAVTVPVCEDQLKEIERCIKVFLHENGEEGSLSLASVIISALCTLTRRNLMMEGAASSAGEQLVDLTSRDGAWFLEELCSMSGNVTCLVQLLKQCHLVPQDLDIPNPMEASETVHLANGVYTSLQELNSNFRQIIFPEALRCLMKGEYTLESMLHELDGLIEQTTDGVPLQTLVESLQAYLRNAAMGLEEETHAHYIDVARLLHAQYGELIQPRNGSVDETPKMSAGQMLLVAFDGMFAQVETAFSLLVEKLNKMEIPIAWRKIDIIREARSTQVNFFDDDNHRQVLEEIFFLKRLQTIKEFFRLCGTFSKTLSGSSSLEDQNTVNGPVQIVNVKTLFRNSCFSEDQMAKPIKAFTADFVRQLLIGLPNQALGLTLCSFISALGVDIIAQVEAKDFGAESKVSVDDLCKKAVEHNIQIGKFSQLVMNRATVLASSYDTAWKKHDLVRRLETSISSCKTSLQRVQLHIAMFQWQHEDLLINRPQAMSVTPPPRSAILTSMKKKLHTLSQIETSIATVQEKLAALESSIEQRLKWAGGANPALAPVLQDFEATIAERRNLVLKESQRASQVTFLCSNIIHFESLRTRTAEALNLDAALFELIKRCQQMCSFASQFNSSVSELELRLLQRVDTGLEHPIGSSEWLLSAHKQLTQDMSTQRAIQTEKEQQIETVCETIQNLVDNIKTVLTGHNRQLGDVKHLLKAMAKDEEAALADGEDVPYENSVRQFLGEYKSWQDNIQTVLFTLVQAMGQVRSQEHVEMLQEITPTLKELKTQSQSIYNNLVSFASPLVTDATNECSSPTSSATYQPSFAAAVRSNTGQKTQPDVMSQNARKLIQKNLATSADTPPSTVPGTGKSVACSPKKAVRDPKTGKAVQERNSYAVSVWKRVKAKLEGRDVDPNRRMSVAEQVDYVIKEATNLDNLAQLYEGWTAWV

B1: UPF3b RRM domain (residues 42–143) (domain or fragment, UniProt Q9BZI7 42-143, looked up)
chain: RNKEKKEALSKVVIRRLPPTLTKEQLQEHLQPMPEHDYFEFFSNDTSLYPHMYARAYINFKNQEDIILFRDRFDGYVFLDNKGQEYPAIVEFAPFQKAAKKK
notes: UPF3b, RRM domain, residues 42-143; also called UPF3b RNP domain
As for B1, in assay [1], the binding result is “binds”.
In the case of B2, the Kd in assay [2] was 0.06 ± 0.005 µM.

B3: preformed UPF2 MIF4G-3/UPF3b complex (complex)
chain 1: EKTVKKKRPPLQEYVRKLLYKDLSKVTTEKVLRQMRKLPWQDQEVKDYVICCMINIWNVKYNSIHCVANLLAGLVLYQEDVGIHVVDGVLEDIRLGMEVNQPKFNQRRISSAKFLGELYNYRMVESAVIFRTLYSFTSFGVNPDGSPSSLDPPEHLFRIRLVCTILDTCGQYFDRGSSKRKLDCFLVYFQRYVWWKKSLEVWTKDHPFPIDIDYMISDTLELLRPKIKLCNSLEESIRQVQDLEREFLIKLGLVNDKDSKDSMTEGENLEEDEEEEEGGAETEEQSGNESEVNE
chain 2: RNKEKKEALSKVVIRRLPPTLTKEQLQEHLQPMPEHDYFEFFSNDTSLYPHMYARAYINFKNQEDIILFRDRFDGYVFLDNKGQEYPAIVEFAPFQKAAKKK
notes: UPF2, human, Q9HAU5, MIF4G-3 construct, residues 761-1054; UPF3b, RRM domain, residues 42-143; also called UPF2 MIF4G-3 in complex with UPF3b; UPF2/UPF3b
For the molecule B3, in assay [2], the Kd was 0.034 ± 0.002 µM.

B4: UPF2 (121–1227), all three MIF4G domains and the UPF1 binding domain (domain or fragment, human, UniProt Q9HAU5 121-1227, looked up)
chain: MKEKEESIQLHQEAWERHHLRKELRSKNQNAPDSRPEENFFSRLDSSLKKNTAFVKKLKTITEQQRDSLSHDFNGLNLSKYIAEAVASIVEAKLKISDVNCAVHLCSLFHQRYADFAPSLLQVWKKHFEARKEEKTPNITKLRTDLRFIAELTIVGIFTDKEGLSLIYEQLKNIINADRESHTHVSVVISFCRHCGDDIAGLVPRKVKSAAEKFNLSFPPSEIISPEKQQPFQNLLKEYFTSLTKHLKRDHRELQNTERQNRRILHSKGELSEDRHKQYEEFAMSYQKLLANSQSLADLLDENMPDLPQDKPTPEEHGPGIDIFTPGKPGEYDLEGGIWEDEDARNFYENLIDLKAFVPAILFKDNEKSCQNKESNKDDTKEAKESKENKEVSSPDDLELELENLEINDDTLELEGGDEAEDLTKKLLDEQEQEDEEASTGSHLKLIVDAFLQQLPNCVNRDLIDKAAMDFCMNMNTKANRKKLVRALFIVPRQRLDLLPFYARLVATLHPCMSDVAEDLCSMLRGDFRFHVRKKDQINIETKNKTVRFIGELTKFKMFTKNDTLHCLKMLLSDFSHHHIEMACTLLETCGRFLFRSPESHLRTSVLLEQMMRKKQAMHLDARYVTMVENAYYYCNPPPAEKTVKKKRPPLQEYVRKLLYKDLSKVTTEKVLRQMRKLPWQDQEVKDYVICCMINIWNVKYNSIHCVANLLAGLVLYQEDVGIHVVDGVLEDIRLGMEVNQPKFNQRRISSAKFLGELYNYRMVESAVIFRTLYSFTSFGVNPDGSPSSLDPPEHLFRIRLVCTILDTCGQYFDRGSSKRKLDCFLVYFQRYVWWKKSLEVWTKDHPFPIDIDYMISDTLELLRPKIKLCNSLEESIRQVQDLEREFLIKLGLVNDKDSKDSMTEGENLEEDEEEEEGGAETEEQSGNESEVNEPEEEEGSDNDDDEGEEEEEENTDYLTDSNKENETDEENTEVMIKGGGLKHVPCVEDEDFIQALDKMMLENLQQRSGESVKVHQLDVAIPLHLKSQLRKGPPLGGGEGEAESADTMPFVMLTRKGNKQQFKILNVPMSSQLAANHWNQQQAEQEERMRMKKLTLDINERQEQED
notes: UPF2, human, Q9HAU5, residues 121-1227; the host of this construct is told only in the Supplementary Material
Regarding B4, the Kd in assay [2] stood at 0.037 ± 0.005 µM.
